Assay results: patent US20260201005A1

Tests used:
[1] = molecular target: KLB (β-klotho) on KLB only expressing cells (UniProt Q86Z14); assay: cell-based or functional assay
[2] = molecular target: KLB/FGFR4 on KLB/FGFR4 expressing cells (UniProt Q86Z14); assay: cell-based or functional assay
Sequence of KLB/FGFR4 on KLB/FGFR4 expressing cells (Q86Z14 whole entry, chain 1 of 2): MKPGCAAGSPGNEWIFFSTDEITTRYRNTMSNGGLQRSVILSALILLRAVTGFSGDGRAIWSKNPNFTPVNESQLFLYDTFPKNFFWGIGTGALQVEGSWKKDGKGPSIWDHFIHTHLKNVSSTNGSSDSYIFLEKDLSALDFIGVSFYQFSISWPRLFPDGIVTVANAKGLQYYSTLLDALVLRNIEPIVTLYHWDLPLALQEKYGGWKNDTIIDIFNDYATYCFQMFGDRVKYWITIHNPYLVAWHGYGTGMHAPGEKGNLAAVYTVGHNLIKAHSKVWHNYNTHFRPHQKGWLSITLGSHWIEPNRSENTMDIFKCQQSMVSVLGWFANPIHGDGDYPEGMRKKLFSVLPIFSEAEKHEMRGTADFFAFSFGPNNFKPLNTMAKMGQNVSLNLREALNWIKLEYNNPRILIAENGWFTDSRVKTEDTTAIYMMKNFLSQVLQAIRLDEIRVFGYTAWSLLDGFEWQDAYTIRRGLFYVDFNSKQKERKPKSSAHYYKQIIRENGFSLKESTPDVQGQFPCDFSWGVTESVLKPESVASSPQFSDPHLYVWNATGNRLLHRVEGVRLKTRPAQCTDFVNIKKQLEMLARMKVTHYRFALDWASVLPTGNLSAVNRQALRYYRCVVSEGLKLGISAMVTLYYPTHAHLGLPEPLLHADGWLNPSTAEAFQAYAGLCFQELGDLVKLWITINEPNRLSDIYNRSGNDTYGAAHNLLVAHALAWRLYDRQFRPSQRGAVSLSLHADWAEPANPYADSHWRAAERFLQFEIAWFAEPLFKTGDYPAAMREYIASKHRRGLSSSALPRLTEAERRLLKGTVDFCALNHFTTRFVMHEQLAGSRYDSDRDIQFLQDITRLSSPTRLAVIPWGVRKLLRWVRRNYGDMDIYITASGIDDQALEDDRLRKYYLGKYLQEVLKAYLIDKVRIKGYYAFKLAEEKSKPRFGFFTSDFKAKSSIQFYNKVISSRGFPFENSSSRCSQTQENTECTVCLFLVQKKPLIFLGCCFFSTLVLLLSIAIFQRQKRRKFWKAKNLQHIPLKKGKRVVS
Sequence of KLB/FGFR4 on KLB/FGFR4 expressing cells (P22455 22-802 limits assumed, chain 2 of 2, further chain): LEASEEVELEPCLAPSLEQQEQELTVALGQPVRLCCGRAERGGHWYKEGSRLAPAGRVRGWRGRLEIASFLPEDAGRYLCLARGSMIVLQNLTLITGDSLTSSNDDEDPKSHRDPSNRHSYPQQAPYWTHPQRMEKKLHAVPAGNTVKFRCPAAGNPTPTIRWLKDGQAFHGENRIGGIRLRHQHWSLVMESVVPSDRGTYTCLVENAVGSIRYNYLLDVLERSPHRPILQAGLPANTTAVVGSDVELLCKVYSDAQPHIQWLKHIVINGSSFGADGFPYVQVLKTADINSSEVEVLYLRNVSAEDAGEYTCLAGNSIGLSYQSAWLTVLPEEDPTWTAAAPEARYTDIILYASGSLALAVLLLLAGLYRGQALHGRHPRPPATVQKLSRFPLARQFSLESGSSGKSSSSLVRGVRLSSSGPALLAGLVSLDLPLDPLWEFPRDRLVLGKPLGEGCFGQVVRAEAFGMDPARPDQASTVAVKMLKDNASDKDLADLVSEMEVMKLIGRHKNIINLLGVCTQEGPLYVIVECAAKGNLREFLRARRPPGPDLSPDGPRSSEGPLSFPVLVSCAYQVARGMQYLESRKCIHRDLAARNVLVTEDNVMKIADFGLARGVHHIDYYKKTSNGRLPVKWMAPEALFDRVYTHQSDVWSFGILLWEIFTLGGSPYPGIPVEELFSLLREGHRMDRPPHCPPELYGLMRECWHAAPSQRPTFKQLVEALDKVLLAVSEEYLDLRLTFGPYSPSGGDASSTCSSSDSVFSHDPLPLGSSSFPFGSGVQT

Sequence of KLB (β-klotho) on KLB only expressing cells (Q86Z14 whole entry): as the sequence (Q86Z14 whole entry, chain 1 of 2) above

Row | Substance | pERK functional assay, fold increase of pERK at 3000 nM [1] | pERK functional assay, fold increase in pERK at 3000 nM [2]
1 | FGF-19 (from UniProt O95750 25-216) (ligand) | 2 fold | 
2 | FGF-21 (native / wild type human Fibroblast Growth Factor-21) (from UniProt Q9NSA1 29-209) (ligand) | 2 fold | < 2 fold
3 | Mutant FGF21-GalNAc-SA-PEG-20 kDa (BIO89-100) (from UniProt Q9NSA1 29-209) (ligand) |  | < 2 fold
